Assay results: IntAct's records for PubMed 11698381

B1: pH-response regulator protein palA/RIM20 (Saccharomyces cerevisiae), Q12033 (parent)
chain: MSELLAIPLKRTLEVDFATELSKLIDTTSFQTASFFQSDILKVVDARNNAIAPDISIDGLSALKEYYVILLQLEKKFPNNQIEFTWFQTLSQKSRGTSQYSLQWEKLTIIYNIGCMYSLLALNSNNDAAESLKTSCLYFQNAAGCFKHVLDHQKNLETIPVVDDATLNALTSLMLAQAQECFWFKAVQDKHKDSLIAKLSQQIVDFYCEAINDAQRGKLIRSDWINHLKAKKAYFSAVTYYRIALSFNEKKQFGNVVKALQMGLQFINESTLSSQAKFKTVVESSLKEAQRDNEFIYLQEVPSELPSIKPALMVKPSSSATLLPSIKKDETLFKDLIPIEVMEYCTAYNERQDEYVEQRVTNPLASLNKLLKESLTTFQIPQGLTKVSEAELSHYQASLNNLLINNKNVQVQLDNIEQILNEEAFTDNQLRLKHGTLNWTLPESSTTNTAYYEKLKKLRGYLDEGSAIDKQTNELFQSIDKNLIGSEIRLPESNDPLTNKIKMIIQERNDYIDRTRRKSSEYRILPKIITSYKKNGTVDFEPIFIGHLKYFDEDLRYVNSTKEENIKLIEEVNLSKKNNPGRSGIEPKKMVRIDPRELYIEDLRYSFKLLDEVKENLSAGTAFYENLITSTSNLYNEVQEYDTARRAEKARLDKSLTFEDQ

Variants of: B1
Details: with pacc_yeast RIM101, P33400
Chain of pacc_yeast RIM101, P33400 (P33400 whole entry): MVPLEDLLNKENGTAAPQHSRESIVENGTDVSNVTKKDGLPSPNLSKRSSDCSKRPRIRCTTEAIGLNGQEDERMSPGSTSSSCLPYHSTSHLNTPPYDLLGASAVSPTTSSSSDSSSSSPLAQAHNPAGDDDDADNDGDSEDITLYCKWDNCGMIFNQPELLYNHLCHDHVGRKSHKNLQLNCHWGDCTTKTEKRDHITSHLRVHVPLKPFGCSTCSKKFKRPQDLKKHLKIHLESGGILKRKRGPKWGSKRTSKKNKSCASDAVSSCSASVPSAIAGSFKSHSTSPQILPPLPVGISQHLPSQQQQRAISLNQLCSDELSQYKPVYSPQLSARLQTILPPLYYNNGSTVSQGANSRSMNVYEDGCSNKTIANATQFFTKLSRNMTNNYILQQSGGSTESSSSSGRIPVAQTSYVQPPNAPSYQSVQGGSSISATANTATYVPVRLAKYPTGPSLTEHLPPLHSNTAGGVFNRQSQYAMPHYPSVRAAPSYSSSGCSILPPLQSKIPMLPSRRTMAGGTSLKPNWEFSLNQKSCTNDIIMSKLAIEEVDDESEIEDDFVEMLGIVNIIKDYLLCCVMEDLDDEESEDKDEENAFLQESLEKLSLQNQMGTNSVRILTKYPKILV

Variant	effect of a mutation on the interaction
Q177A;Q179A;E180A	disrupting interaction
F623A;Y624A	disrupting interaction
